Measurements taken from US20130273058A1.
[ ]: non-standard residue; d: D form. The star is where a group is joined. Palmitoyl = CCCCCCCCCCCCCCCC(=O)*

Target: GFP-tagged beta-catenin (UniProt P35222)
Experiment: microscale thermophoresis (Monolith NT.115); lysate of HEK293 cells with GFP-beta-catenin mixed with increasing CT-HC-5 in the presence of bicelles; Hill fit

Chain of GFP-tagged beta-catenin (P35222 whole entry): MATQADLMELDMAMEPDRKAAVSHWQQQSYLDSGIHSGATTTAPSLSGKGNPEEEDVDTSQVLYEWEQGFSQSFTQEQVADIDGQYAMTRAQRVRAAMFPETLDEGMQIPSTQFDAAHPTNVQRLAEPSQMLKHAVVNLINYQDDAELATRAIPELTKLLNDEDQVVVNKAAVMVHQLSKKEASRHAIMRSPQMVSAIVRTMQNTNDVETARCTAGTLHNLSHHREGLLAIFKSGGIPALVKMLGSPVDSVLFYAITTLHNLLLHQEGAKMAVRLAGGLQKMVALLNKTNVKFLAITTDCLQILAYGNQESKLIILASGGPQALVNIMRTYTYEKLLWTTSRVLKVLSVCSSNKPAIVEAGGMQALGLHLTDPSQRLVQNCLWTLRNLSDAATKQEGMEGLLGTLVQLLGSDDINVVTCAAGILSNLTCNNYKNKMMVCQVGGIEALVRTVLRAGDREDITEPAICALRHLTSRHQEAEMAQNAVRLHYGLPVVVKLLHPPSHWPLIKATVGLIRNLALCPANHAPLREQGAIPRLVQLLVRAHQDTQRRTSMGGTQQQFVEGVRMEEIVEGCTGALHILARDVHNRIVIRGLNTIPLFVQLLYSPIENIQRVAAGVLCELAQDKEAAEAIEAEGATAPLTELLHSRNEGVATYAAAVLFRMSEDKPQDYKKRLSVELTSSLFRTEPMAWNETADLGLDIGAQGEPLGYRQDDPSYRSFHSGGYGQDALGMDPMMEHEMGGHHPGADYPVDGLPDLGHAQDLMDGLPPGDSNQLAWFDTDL

B1: CT-HC-5 (peptide)
peptide: Palmitoyl-[dT][dR][dF][dL][dS][dS][dT][dL][dE][dV][dS][dL][dR][dK][dK]-NH2
SMILES: CCCCCCCCCCCCCCCC(=O)N[C@@H](C(=O)N[C@H](CCCNC(=N)N)C(=O)N[C@H](Cc1ccccc1)C(=O)N[C@H](CC(C)C)C(=O)N[C@H](CO)C(=O)N[C@H](CO)C(=O)N[C@@H](C(=O)N[C@H](CC(C)C)C(=O)N[C@H](CCC(=O)O)C(=O)N[C@@H](C(=O)N[C@H](CO)C(=O)N[C@H](CC(C)C)C(=O)N[C@H](CCCNC(=N)N)C(=O)N[C@H](CCCCN)C(=O)N[C@H](CCCCN)C(N)=O)C(C)C)[C@H](C)O)[C@H](C)O
B1 gave a Kd of 2700 nM.
